According to patent US7067646 (Dana-Farber, dated 2006):

Key:
[1] = target: T1, MTAF600 (microtubule associated factor 600) (human, UniProt Q5T4S7 1-5183); assay: immunoprecipitation with RB antibody from HeLa extract, anti-MTAF600 immunoblot
T1 construct: Native endogenous protein of HeLa nuclear extracts (5183 residues); also called MT-associated factor (MTAF) 600; 600 kDa subunit

[2] = target: T1, MTAF600 (microtubule associated factor …); assay: anti-FLAG immunoprecipitation of C-terminally tagged RB from HeLa cells
[3] = target: T1, MTAF600 (microtubule associated factor …); assay: immunoprecipitation with p130 antibody from HeLa extract, anti-MTAF600 immunoblot
[4] = target: T1, MTAF600 (microtubule associated factor …); assay: immunoprecipitation with p107 antibody from HeLa extract, anti-MTAF600 immunoblot
GST-RB (379-928) = target: T2, GST-RB (379-928) (UniProt P06400 379-928); assay: GST-RB (379-928) pull-down of His-tagged fragment from E. coli, Coomassie stain and anti-His immunoblot
T2 construct: Expressed in E. coli; also called large pocket domain of RB as GST fusion; not shown: glutathione S-transferase (GST) fusion partner of vector pGEX6P-1
T2 sequence (looked up): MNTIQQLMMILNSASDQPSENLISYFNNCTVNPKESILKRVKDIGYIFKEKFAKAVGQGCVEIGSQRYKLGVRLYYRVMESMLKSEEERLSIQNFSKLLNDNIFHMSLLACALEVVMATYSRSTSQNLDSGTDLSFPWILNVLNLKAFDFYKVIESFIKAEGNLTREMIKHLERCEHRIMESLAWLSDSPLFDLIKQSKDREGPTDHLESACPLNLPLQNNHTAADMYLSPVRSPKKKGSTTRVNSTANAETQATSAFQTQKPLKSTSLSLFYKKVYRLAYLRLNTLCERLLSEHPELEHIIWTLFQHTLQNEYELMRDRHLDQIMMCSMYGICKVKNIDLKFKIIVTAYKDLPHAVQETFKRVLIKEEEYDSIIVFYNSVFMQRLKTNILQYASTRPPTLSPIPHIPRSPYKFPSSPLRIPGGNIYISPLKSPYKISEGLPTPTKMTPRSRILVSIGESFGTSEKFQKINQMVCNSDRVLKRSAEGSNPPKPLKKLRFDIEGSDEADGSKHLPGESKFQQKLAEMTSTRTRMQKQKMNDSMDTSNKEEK

T1 sequence (Q5T4S7 other isoform, or with tags, fused parts or gaps limits assumed): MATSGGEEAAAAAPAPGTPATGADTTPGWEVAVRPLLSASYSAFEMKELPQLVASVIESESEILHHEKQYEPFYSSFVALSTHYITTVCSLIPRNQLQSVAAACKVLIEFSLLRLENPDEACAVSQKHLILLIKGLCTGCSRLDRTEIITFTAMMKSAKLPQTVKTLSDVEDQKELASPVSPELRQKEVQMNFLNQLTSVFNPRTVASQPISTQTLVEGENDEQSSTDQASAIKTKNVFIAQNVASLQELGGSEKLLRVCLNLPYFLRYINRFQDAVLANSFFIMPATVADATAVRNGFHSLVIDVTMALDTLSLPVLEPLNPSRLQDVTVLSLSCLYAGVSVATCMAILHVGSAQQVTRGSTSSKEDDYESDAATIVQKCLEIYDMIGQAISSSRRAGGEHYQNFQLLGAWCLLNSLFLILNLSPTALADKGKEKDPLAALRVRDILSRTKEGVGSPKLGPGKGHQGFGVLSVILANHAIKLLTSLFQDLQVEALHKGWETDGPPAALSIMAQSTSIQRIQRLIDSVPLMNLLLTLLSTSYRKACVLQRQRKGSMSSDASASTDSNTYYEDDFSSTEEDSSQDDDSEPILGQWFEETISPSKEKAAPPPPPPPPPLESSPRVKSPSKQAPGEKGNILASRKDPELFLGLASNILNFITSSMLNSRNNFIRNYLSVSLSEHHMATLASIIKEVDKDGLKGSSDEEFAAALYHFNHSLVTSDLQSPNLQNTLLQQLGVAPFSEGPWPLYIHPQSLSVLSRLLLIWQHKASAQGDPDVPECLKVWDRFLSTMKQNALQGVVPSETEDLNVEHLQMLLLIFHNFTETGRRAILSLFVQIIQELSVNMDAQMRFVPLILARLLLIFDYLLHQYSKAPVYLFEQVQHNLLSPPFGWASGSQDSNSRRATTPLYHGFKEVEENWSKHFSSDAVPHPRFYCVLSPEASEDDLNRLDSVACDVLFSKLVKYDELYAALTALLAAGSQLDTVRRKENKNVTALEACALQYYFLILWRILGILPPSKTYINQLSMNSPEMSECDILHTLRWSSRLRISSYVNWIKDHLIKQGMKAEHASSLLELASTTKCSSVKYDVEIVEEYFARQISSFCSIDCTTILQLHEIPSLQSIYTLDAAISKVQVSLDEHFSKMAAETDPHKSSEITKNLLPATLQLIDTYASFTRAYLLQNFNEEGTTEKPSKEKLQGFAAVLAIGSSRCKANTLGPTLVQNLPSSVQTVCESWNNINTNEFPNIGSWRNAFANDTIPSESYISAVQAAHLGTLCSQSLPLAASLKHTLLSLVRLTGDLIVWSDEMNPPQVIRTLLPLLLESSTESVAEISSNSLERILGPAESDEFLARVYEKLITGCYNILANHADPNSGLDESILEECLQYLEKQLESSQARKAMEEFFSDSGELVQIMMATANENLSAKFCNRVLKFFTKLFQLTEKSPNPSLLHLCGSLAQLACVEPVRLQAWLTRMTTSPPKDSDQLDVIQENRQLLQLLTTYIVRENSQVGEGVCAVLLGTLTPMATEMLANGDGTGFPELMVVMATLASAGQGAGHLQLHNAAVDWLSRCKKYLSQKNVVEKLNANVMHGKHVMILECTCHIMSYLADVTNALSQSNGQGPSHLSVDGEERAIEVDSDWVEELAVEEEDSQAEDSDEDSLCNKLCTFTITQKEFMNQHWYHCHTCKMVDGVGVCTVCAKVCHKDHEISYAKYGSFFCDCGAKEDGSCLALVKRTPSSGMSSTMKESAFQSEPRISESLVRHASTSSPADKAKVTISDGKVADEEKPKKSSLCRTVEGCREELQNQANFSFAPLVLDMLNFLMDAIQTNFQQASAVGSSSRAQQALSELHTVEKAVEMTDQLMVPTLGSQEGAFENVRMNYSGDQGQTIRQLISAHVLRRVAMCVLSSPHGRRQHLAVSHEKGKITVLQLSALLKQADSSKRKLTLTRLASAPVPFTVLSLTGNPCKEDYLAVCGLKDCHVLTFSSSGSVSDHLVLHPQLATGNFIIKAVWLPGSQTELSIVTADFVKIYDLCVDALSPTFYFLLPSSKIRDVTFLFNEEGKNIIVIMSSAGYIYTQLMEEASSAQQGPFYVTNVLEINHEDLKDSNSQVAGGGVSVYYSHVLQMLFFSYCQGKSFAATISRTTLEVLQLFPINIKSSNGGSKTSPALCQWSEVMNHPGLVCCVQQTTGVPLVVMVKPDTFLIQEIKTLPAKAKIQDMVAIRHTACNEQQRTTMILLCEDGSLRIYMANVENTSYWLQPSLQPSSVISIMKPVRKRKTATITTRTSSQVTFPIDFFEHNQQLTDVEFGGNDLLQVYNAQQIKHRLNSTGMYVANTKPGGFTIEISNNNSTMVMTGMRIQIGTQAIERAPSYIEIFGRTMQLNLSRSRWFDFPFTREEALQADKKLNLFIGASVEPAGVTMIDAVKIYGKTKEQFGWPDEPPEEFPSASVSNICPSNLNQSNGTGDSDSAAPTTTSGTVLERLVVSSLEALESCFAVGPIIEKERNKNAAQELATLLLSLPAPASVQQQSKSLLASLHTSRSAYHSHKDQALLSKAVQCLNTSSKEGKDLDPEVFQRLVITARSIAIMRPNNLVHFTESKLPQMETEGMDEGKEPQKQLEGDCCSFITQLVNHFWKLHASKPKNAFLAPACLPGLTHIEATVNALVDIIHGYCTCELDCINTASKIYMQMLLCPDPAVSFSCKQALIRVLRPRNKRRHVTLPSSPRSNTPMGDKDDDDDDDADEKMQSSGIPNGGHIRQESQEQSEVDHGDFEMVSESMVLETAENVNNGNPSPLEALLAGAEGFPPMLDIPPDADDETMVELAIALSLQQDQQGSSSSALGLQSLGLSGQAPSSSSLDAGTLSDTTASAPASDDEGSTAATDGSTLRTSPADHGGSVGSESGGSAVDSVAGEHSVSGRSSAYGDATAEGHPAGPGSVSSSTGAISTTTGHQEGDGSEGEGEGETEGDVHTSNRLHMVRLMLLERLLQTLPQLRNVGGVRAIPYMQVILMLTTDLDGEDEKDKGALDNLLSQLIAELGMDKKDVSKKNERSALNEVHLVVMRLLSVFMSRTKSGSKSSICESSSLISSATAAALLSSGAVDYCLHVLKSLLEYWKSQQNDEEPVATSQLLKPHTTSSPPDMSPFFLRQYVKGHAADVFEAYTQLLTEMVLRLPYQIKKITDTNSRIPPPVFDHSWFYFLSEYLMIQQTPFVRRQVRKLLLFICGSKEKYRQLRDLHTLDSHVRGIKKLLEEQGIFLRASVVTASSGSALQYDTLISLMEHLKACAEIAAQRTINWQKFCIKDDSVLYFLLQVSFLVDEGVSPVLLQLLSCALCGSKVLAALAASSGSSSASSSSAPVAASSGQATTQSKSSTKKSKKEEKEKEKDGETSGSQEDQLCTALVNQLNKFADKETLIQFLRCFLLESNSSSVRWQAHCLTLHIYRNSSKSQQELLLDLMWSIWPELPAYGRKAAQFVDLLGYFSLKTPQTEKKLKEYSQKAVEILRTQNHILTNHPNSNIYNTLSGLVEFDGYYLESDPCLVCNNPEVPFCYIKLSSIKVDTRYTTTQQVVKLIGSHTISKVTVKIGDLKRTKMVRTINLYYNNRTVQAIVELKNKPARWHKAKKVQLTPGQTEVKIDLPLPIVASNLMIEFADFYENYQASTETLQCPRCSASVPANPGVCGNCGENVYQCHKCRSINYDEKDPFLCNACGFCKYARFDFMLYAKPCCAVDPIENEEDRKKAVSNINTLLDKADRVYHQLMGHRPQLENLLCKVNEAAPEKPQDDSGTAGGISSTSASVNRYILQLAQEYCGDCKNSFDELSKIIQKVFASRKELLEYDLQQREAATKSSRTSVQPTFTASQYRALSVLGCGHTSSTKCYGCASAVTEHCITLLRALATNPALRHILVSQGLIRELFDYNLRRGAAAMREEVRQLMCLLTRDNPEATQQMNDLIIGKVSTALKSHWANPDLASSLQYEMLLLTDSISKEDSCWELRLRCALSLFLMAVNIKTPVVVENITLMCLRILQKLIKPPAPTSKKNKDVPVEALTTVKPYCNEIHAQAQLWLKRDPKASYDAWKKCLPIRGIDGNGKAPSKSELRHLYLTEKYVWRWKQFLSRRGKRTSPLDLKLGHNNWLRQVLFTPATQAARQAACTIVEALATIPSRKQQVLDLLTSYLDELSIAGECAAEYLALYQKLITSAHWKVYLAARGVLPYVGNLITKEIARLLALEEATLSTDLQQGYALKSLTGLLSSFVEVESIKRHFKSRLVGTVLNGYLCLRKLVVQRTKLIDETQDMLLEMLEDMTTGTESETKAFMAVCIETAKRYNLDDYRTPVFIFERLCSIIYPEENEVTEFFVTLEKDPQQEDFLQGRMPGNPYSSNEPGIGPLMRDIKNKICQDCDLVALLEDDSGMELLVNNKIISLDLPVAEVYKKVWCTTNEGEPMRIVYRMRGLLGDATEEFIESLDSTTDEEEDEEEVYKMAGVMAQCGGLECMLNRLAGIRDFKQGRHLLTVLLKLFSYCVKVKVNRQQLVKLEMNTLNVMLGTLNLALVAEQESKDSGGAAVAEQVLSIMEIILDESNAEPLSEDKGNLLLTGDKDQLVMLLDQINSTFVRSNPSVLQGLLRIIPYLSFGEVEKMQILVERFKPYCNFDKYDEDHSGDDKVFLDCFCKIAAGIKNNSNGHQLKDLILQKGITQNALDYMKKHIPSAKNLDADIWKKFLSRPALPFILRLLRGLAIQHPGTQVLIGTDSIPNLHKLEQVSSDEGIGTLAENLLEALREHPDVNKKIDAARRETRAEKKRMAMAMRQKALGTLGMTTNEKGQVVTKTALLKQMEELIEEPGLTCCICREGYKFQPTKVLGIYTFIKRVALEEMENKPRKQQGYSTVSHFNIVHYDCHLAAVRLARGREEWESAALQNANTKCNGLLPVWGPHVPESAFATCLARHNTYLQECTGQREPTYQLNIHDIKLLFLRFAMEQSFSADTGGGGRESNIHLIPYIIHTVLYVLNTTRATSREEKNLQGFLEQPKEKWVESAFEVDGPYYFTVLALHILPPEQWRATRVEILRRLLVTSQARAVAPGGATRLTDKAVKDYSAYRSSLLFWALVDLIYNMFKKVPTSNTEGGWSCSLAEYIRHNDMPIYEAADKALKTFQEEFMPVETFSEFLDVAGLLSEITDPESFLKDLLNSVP

B1: RB (retinoblastoma protein), endogenous, HeLa extract (other, human, UniProt P06400 2-928, looked up)
chain: PPKTPRKTAATAAAAAAEPPAPPPPPPPEEDPEQDSGPEDLPLVRLEFEETEEPDFTALCQKLKIPDHVRERAWLTWEKVSSVDGVLGGYIQKKKELWGICIFIAAVDLDEMSFTFTELQKNIEISVHKFFNLLKEIDTSTKVDNAMSRLLKKYDVLFALFSKLERTCELIYLTQPSSSISTEINSALVLKVSWITFLLAKGEVLQMEDDLVISFQLMLCVLDYFIKLSPPMLLKEPYKTAVIPINGSPRTPRRGQNRSARIAKQLENDTRIIEVLCKEHECNIDEVKNVYFKNFIPFMNSLGLVTSNGLPEVENLSKRYEEIYLKNKDLDARLFLDHDKTLQTDSIDSFETQRTPRKSNLDEEVNVIPPHTPVRTVMNTIQQLMMILNSASDQPSENLISYFNNCTVNPKESILKRVKDIGYIFKEKFAKAVGQGCVEIGSQRYKLGVRLYYRVMESMLKSEEERLSIQNFSKLLNDNIFHMSLLACALEVVMATYSRSTSQNLDSGTDLSFPWILNVLNLKAFDFYKVIESFIKAEGNLTREMIKHLERCEHRIMESLAWLSDSPLFDLIKQSKDREGPTDHLESACPLNLPLQNNHTAADMYLSPVRSPKKKGSTTRVNSTANAETQATSAFQTQKPLKSTSLSLFYKKVYRLAYLRLNTLCERLLSEHPELEHIIWTLFQHTLQNEYELMRDRHLDQIMMCSMYGICKVKNIDLKFKIIVTAYKDLPHAVQETFKRVLIKEEEYDSIIVFYNSVFMQRLKTNILQYASTRPPTLSPIPHIPRSPYKFPSSPLRIPGGNIYISPLKSPYKISEGLPTPTKMTPRSRILVSIGESFGTSEKFQKINQMVCNSDRVLKRSAEGSNPPKPLKKLRFDIEGSDEADGSKHLPGESKFQQKLAEMTSTRTRMQKQKMNDSMDTSNKEEK
notes: Endogenous RB, both phosphorylation forms together
Question: Does B1 bind [1]?
Answer: binds

B2: RB with the FLAG tag at the C-terminus (other, UniProt P06400 2-928, looked up, not shown: small tags and cut ends)
chain: B1 chain
notes: also called C-terminally tagged RB
Question: Does B2 bind [2]?
Answer: binds

B3: p130, endogenous, HeLa extract (other, UniProt Q08999 1-1139, looked up)
chain: MPSGGDQSPPPPPPPPAAAASDEEEEDDGEAEDAAPPAESPTPQIQQRFDELCSRLNMDEAARAEAWDSYRSMSESYTLEGNDLHWLACALYVACRKSVPTVSKGTVEGNYVSLTRILKCSEQSLIEFFNKMKKWEDMANLPPHFRERTERLERNFTVSAVIFKKYEPIFQDIFKYPQEEQPRQQRGRKQRRQPCTVSEIFHFCWVLFIYAKGNFPMISDDLVNSYHLLLCALDLVYGNALQCSNRKELVNPNFKGLSEDFHAKDSKPSSDPPCIIEKLCSLHDGLVLEAKGIKEHFWKPYIRKLYEKKLLKGKEENLTGFLEPGNFGESFKAINKAYEEYVLSVGNLDERIFLGEDAEEEIGTLSRCLNAGSGTETAERVQMKNILQQHFDKSKALRISTPLTGVRYIKENSPCVTPVSTATHSLSRLHTMLTGLRNAPSEKLEQILRTCSRDPTQAIANRLKEMFEIYSQHFQPDEDFSNCAKEIASKHFRFAEMLYYKVLESVIEQEQKRLGDMDLSGILEQDAFHRSLLACCLEVVTFSYKPPGNFPFITEIFDVPLYHFYKVIEVFIRAEDGLCREVVKHLNQIEEQILDHLAWKPESPLWEKIRDNENRVPTCEEVMPPQNLERADEICIAGSPLTPRRVTEVRADTGGLGRSITSPTTLYDRYSSPPASTTRRRLFVENDSPSDGGTPGRMPPQPLVNAVPVQNVSGETVSVTPVPGQTLVTMATATVTANNGQTVTIPVQGIANENGGITFFPVQVNVGGQAQAVTGSIQPLSAQALAGSLSSQQVTGTTLQVPGQVAIQQISPGGQQQKQGQSVTSSSNRPRKTSSLSLFFRKVYHLAAVRLRDLCAKLDISDELRKKIWTCFEFSIIQCPELMMDRHLDQLLMCAIYVMAKVTKEDKSFQNIMRCYRTQPQARSQVYRSVLIKGKRKRRNSGSSDSRSHQNSPTELNKDRTSRDSSPVMRSSSTLPVPQPSSAPPTPTRLTGANSDMEEEERGDLIQFYNNIYIKQIKTFAMKYSQANMDAPPLSPYPFVRTGSPRRIQLSQNHPVYISPHKNETMLSPREKIFYYFSNSPSKRLREINSMIRTGETPTKKRGILLEDGSESPAKRICPENHSALLRRLQDVANDRGSH
Question: Does B3 bind [3]?
Answer: binds

B4: p107, endogenous, HeLa extract (other, UniProt P28749 1-1068, looked up)
chain: MFEDKPHAEGAAVVAAAGEALQALCQELNLDEGSAAEALDDFTAIRGNYSLEGEVTHWLACSLYVACRKSIIPTVGKGIMEGNCVSLTRILRSAKLSLIQFFSKMKKWMDMSNLPQEFRERIERLERNFEVSTVIFKKYEPIFLDIFQNPYEEPPKLPRSRKQRRIPCSVKDLFNFCWTLFVYTKGNFRMIGDDLVNSYHLLLCCLDLIFANAIMCPNRQDLLNPSFKGLPSDFHTADFTASEEPPCIIAVLCELHDGLLVEAKGIKEHYFKPYISKLFDRKILKGECLLDLSSFTDNSKAVNKEYEEYVLTVGDFDERIFLGADAEEEIGTPRKFTRDTPLGKLTAQANVEYNLQQHFEKKRSFAPSTPLTGRRYLREKEAVITPVASATQSVSRLQSIVAGLKNAPSDQLINIFESCVRNPVENIMKILKGIGETFCQHYTQSTDEQPGSHIDFAVNRLKLAEILYYKILETVMVQETRRLHGMDMSVLLEQDIFHRSLMACCLEIVLFAYSSPRTFPWIIEVLNLQPFYFYKVIEVVIRSEEGLSRDMVKHLNSIEEQILESLAWSHDSALWEALQVSANKVPTCEEVIFPNNFETGNGGNVQGHLPLMPMSPLMHPRVKEVRTDSGSLRRDMQPLSPISVHERYSSPTAGSAKRRLFGEDPPKEMLMDKIITEGTKLKIAPSSSITAENVSILPGQTLLTMATAPVTGTTGHKVTIPLHGVANDAGEITLIPLSMNTNQESKVKSPVSLTAHSLIGASPKQTNLTKAQEVHSTGINRPKRTGSLALFYRKVYHLASVRLRDLCLKLDVSNELRRKIWTCFEFTLVHCPDLMKDRHLDQLLLCAFYIMAKVTKEERTFQEIMKSYRNQPQANSHVYRSVLLKSIPREVVAYNKNINDDFEMIDCDLEDATKTPDCSSGPVKEERGDLIKFYNTIYVGRVKSFALKYDLANQDHMMDAPPLSPFPHIKQQPGSPRRISQQHSIYISPHKNGSGLTPRSALLYKFNGSPSKSLKDINNMIRQGEQRTKKRVIAIDSDAESPAKRVCQENDDVLLKRLQDVVSERANH
Question: Does B4 bind [4]?
Answer: binds

B5: His-tagged MTAF600 (4529-4851) (other)
chain: EMNTLNVMLGTLNLALVAEQESKDSGGAAVAEQVLSIMEIILDESNAEPLSEDKGNLLLTGDKDQLVMLLDQINSTFVRSNPSVLQGLLRIIPYLSFGEVEKMQILVERFKPYCNFDKYDEDHSGDDKVFLDCFCKIAAGIKNNSNGHQLKDLILQKGITQNALDYMKKHIPSAKNLDADIWKKFLSRPALPFILRLLRGLAIQHPGTQVLIGTDSIPNLHKLEQVSSDEGIGTLAENLLEALREHPDVNKKIDAARRETRAEKKRMAMAMRQKALGTLGMTTNEKGQVVTKTALLKQMEELIEEPGLTCCICREGYKFQPTK
notes: Expressed in E. coli; not shown: His tag of vector pET28c
Question: Does B5 bind (GST-RB (379-928))?
Answer: no binding
